Assay results published in publication PMC11467436, “Novel mechanisms of MITF regulation identified in a mouse suppressor screen”.

Columns and labels:
Details in all cases: protein: recombinant; tags: none (His6-SUMO removed by ULP-1); unlabeled; chain copies: 2; label: Cy3B (5' positive strand); CF660R (5' negative strand); blunt
hMITF-sl [1] = target: T1, hMITF-sl (Homo sapiens, UniProt O75030-10 1-309); assay: FCS; 300 mM KCl; Single-molecule: 0.5 nM DNA, 10 mM Tris pH 7.4, 0.1 mM EDTA, 165 or 300 mM KCl, 1 mM MgCl2, 143 mM 2-ME, 0.01% Tween-20, 0.1 mg/mL BSA. EMSA: 10 mM Hepes pH 7.9, 50 mM NaCl, 5 mM MgCl2, 0.1 mM EDTA, 2 mM DTT, 5% ethylene glycol, 5% glycerol, BSA, 30 min on ice
hMITF-WT [2] = target: T2, hMITF-WT (Homo sapiens, UniProt O75030-9 1-419); assay: as above
hMITF-sp [3] = target: T3, hMITF-sp (Homo sapiens, UniProt O75030-10 1-413); assay: as above
hMITF-sl [4] = target: T1, hMITF-sl; assay: single-molecule fluorescence anisotropy; 300 mM KCl; Single-molecule: 0.5 nM DNA, 10 mM Tris pH 7.4, 0.1 mM EDTA, 165 or 300 mM KCl, 1 mM MgCl2, 143 mM 2-ME, 0.01% Tween-20, 0.1 mg/mL BSA. EMSA: 10 mM Hepes pH 7.9, 50 mM NaCl, 5 mM MgCl2, 0.1 mM EDTA, 2 mM DTT, 5% ethylene glycol, 5% glycerol, BSA, 30 min on ice
hMITF-WT [5] = target: T2, hMITF-WT; assay: as above
hMITF-sp [6] = target: T3, hMITF-sp; assay: as above
hMITF-sl [7] = target: T1, hMITF-sl; assay: smFRET; 300 mM KCl; Single-molecule: 0.5 nM DNA, 10 mM Tris pH 7.4, 0.1 mM EDTA, 165 or 300 mM KCl, 1 mM MgCl2, 143 mM 2-ME, 0.01% Tween-20, 0.1 mg/mL BSA. EMSA: 10 mM Hepes pH 7.9, 50 mM NaCl, 5 mM MgCl2, 0.1 mM EDTA, 2 mM DTT, 5% ethylene glycol, 5% glycerol, BSA, 30 min on ice
hMITF-WT [8] = target: T2, hMITF-WT; assay: as above
hMITF-sp [9] = target: T3, hMITF-sp; assay: as above

T3 sequence (O75030 other isoform, or with tags, fused parts or gaps): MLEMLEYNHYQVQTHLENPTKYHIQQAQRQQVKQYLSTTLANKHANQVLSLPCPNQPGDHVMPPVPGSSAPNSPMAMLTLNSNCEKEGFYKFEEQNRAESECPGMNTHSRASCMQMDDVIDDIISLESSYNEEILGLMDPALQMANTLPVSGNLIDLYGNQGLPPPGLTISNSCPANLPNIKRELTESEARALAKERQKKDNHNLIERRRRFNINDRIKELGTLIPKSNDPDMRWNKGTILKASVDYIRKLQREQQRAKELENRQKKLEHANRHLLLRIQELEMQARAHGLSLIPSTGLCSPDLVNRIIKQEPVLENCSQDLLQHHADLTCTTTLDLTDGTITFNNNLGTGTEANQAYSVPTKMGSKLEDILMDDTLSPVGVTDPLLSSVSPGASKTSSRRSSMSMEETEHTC
T2 sequence (O75030 other isoform, or with tags, fused parts or gaps): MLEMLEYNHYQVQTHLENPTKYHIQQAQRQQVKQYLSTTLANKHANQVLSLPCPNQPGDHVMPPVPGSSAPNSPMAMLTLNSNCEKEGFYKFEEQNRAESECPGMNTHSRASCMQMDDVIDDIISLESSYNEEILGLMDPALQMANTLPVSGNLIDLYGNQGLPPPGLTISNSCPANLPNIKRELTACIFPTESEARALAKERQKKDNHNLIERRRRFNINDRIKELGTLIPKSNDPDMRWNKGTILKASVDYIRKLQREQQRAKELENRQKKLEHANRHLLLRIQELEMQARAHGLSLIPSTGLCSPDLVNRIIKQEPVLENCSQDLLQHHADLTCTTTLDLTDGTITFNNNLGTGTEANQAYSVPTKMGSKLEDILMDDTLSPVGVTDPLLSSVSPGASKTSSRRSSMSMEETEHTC
T1 sequence (O75030 other isoform, or with tags, fused parts or gaps): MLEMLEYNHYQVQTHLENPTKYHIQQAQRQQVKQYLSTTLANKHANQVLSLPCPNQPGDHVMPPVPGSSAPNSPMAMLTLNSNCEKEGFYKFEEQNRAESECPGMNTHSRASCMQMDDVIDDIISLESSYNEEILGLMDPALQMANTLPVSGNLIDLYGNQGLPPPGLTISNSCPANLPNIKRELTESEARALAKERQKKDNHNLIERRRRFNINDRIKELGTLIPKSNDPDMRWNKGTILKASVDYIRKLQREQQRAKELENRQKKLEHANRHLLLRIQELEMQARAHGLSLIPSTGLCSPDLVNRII

B1: M-box smFRET probe (dsDNA)
DNA 1: GAGATCATGTGTTGA
DNA 2: TCAACACATGATCTC
modifications: 5' C6-amino linker on both strands
Q: With B1 as the binder, how does the Kd (hMITF-sl [1]) read?
A: 3.1 ± 1.6 nM

Q: And the Kd (hMITF-WT [2])?
A: 4.5 ± 1.4 nM

Q: What about the Kd (hMITF-sp [3]) of the same binder?
A: 5.8 ± 3.5 nM

Q: What about the Kd (hMITF-sl [4]) of the same binder?
A: 0.9 ± 0.4 nM

Q: What about the Kd (hMITF-WT [5]) of the same binder?
A: 1.9 ± 0.6 nM

Q: And the Kd (hMITF-sp [6])?
A: 1 ± 0.4 nM

Q: And the Kd (hMITF-sl [7])?
A: 1.6 ± 0.5 nM

Q: And the Kd (hMITF-WT [8])?
A: 1.6 ± 1.4 nM

Q: What about the Kd (hMITF-sp [9]) of the same binder?
A: 1.7 ± 0.9 nM
